The values below are quoted from earlier work in article PMC7605336.

For this data set, the target named is Spike protein RBD (SARS-CoV-2) (UniProt P0DTC2).

As for “SBP1 (ACE2 α1 helix-derived 23-mer peptide) α1 helix (from UniProt Q9BYF1)”, the dissociation constant (Kd) was 47 nM.
